Experimental data reported in publication PMC9897490.

Biological target: FtsZ (wild type, Caulobacter crescentus) (Caulobacter crescentus)
Assay: BLI

Sequence of FtsZ (wild type, Caulobacter crescentus) (Caulobacter crescentus) (B8H080 whole entry): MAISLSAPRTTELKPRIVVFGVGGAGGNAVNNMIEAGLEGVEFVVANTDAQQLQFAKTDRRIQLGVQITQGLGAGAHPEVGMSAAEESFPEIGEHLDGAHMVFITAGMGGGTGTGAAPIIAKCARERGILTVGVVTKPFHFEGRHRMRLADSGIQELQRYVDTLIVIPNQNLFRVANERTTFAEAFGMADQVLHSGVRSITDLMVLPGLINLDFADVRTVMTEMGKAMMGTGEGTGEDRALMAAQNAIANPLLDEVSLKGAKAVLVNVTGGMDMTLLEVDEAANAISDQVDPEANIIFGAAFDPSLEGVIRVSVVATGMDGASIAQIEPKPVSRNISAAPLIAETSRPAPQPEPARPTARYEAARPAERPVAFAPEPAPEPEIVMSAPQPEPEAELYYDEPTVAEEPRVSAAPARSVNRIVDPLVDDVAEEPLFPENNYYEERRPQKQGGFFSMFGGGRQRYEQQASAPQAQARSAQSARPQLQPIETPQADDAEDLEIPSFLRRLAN

- Kd: 11 µM
Substance: MipZ-His6 (wild type) (enzyme)
